Data on twelve molecules can be found in patent publication US20200262914A1 (MIT, published 2020).

Experiment [1] has as its target T1, human Bfl-1 (residues 1-151) (human, UniProt Q16548 1-151).
T1 construct: range 1-151
T1 sequence (looked up): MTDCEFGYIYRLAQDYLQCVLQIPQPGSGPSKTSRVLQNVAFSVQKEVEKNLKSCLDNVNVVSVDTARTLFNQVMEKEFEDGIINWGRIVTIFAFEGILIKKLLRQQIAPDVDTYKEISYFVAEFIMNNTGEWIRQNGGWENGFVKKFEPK
Description: yeast surface display.

Experiment [2] deals with T2, human Mcl-1 (residues 172-327) (human, UniProt Q07820 172-327).
T2 construct: range 172-327
Description: yeast surface display.

Experiment [3] has as its target T3, human Bcl-xL (residues 1-209) (human, UniProt Q07817 1-209).
T3 construct: range 1-209
Description: yeast surface display.

Experiment [4] concerns the target T1, human Bfl-1 (residues 1-151). Description: competition FP, solution.
Description: (§1) We used the cell-surface experiments to select six peptides, for which we determined solution Ki values using a competition fluorescence polarization (FP) assay (FIG. 3, panel d).
For experiment [5], the target named is T2, human Mcl-1 (residues 172-327). Description: competition FP, solution.
Description: as §1
The target in experiment [6] is T1, human Bfl-1 (residues 1-151). As to the kind of experiment: competition FP vs fluoresceinated Bim BH3, solution.
Description: as §1
Experiment [7] deals with T2, human Mcl-1 (residues 172-327). The experiment is described as above.
Description: as §1
The target in experiment [8] is T3, human Bcl-xL (residues 1-209). The description is as above.
Description: as §1
Experiment [9] shares this target. As to the kind of experiment: solution binding assays (competition FP).
For experiment [10], the target named is T1, human Bfl-1 (residues 1-151). Description: yeast display, sparse titration, apparent KD.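 Note: designs displayed on the yeast cell surface, binding of soluble target protein measured at four concentrations spanning nanomolar to micromolar, apparent KD estimated from this sparse titration.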
Description: We measured binding of the designs to 1, 10, 100 or 1000 nM of Bcl-xL, Mcl-1 and Bfl-1 using yeast cell-surface display.
Experiment [11] has the same target. Description: reported affinity; yeast cell-surface measurement presumed.

T2 sequence (Q07820 172-327 limits assumed): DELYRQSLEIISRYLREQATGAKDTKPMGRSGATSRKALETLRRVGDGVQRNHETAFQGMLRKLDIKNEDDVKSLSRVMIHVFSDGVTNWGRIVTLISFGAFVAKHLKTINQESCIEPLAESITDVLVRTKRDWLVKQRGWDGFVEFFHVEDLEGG
T3 sequence (Q07817 1-209 limits assumed): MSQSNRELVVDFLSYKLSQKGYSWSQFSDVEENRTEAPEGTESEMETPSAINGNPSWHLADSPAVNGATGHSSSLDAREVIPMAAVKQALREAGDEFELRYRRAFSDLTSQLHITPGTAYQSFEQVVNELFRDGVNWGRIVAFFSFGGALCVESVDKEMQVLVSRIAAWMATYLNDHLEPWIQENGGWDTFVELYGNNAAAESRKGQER

For the molecule GRRVDEIAQILRRIGDNINEYI [MF04], the binding result in experiment [1], in experiment [2] and in [3] was “binds” throughout.

In the case of GRRVDEIAQILRRIGDQIEEYI [MF07], the binding result in experiment [1], in experiment [2] and in [3] was “binds” throughout.

B1: srt.MF02 (peptide)
peptide: Ac-RWIDQIAQFLRRIGDHIEKYIER-NH2
notes: synthetic solution peptide; also called MF2
For B1, the “fold tighter Ki than to Bcl-xL” value in experiment [4] and in [5] was over 100 fold each time. The Ki was found to be 6.6 nM in [6], 9 nM in [7] and 1000 nM in experiment [8].

B2: srt.MF06 (peptide)
peptide: Ac-RRVDEIAQILRRIGDNVTTYIER-NH2
notes: synthetic solution peptide; also called MF6
Consider B2, for which the “fold tighter Ki than to Bcl-xL” value in experiment [4] and in experiment [5] was over 100 fold in each case. Also, the results for the Ki in [6] and in experiment [7] were 19 nM and 5.7 nM, respectively.

For the molecule Ac-QWLRWVIAELIRIADEFHAQYER-NH2 (synthetic solution peptide) [srt.MX01], the Ki in [7] worked out at 11 nM; in experiment [8], 21 nM.

With Ac-QRIIWIAAELRRAADELDKQIER-NH2 (synthetic solution peptide) [srt.XF02], the Ki in experiment [6] was 10 nM; in experiment [8], 37 nM.

Consider Ac-QRIIWIAAELRRAADQLDAQIER-NH2 (synthetic solution peptide) [srt.XF03], for which the Ki in [6] stood at 22 nM; in [8] it was 120 nM.

B3: srt.X7 (peptide)
peptide: Ac-QPLIWFGAQLRRGADEFAAQRER-NH2
notes: synthetic solution peptide; also called srt.X07
For B3, the “fold specificity for target over off-targets” value in experiment [9] was over 1000 fold. This molecule also displayed a Ki in experiment [8] of 3.7 nM.

With GQRVVHIAAGLRRTGDQLEAYG [F4], the Kd in experiment [10] is under 100 nM; in experiment [11] it was 14 nM.

For GRRVVQIAAGLRRAGDQLEKYG [F10], the Kd in [10] was under 100 nM; in experiment [11] it was 3.2 nM.

As for Ac-QWLRDVVAELARIADEFHAQYER-NH2 (synthetic solution peptide) [srt.MX05], the Ki in experiment [7] came to 100 nM; in experiment [8], 20 nM.

B4: srt.X1 (peptide)
peptide: Ac-QTLIWYGASLRRYADEFAKQRER-NH2
notes: synthetic solution peptide; also called srt.X01
Consider B4, for which the “fold specificity for target over off-targets” value in experiment [9] was over 1000 fold. In experiment [8], this molecule yielded a Ki of 1.32 nM.

As a reminder, the Ki is the equilibrium dissociation constant of an inhibitor or competing ligand from its target.
